Measured values as given in paper PMC7138851, “Quantitative assessment of the determinant structural differences between redox-active and inactive glutaredoxins” (Nature Communications, 2020).

Tests used:
Assay in all cases: purified protein, by the assay type
Conditions in all cases: pH 8.0; 25.0 °C
[1] = substrate: N[C@@H](CCC(=O)N[C@@H](CSSC[C@H](N)C(=O)O)C(=O)NCC(=O)O)C(=O)O; parameters: GSSCys oxidoreductase assay, steady-state kinetics, coupled NADPH consumption at 340 nm, pH 8.0, 25 °C
Method: (§1) Steady-state kinetics of wild-type and mutant ScGrx7 and HsGrx5^C122S in the GSSCys and [compound left out] assays were determined spectrophotometrically by monitoring the consumption of NADPH at 340 nm and 25 °C using a thermostated Jasco V-650 UV/vis spectrophotometer[11],[19],[25]. Fresh stock solutions of NADPH, GSH, GR, and GSSCys or [compound left out] were prepared in assay buffer containing 0.1 M Tris/HCl, 1 mM EDTA, pH 8.0 before each experiment. Both assays were performed with 0.1 mM NADPH and 1 U/ml ScGR. The following final protein concentrations were used for Y110F/H/A (5–150 nM), D144A/K (10 nM), E147A/K (10 nM), R153A/E (25–50 nM), ScGrx7^WP (20 nM), ScGrx7^loop (up to 1.4 µM), ScGrx7^WP+loop (up 2.6 µM), HsGrx5^C122S (up to 15 µM), HsGrx5^RR (up to 12 µM), HsGrx5^loop (up to 1.6 µM), and HsGrx5^RR+loop (up to 4.0 µM). For the GSSCys assays, GSH was varied between 50 µM and 1.5 mM at fixed GSSCys concentrations (25, 50, 100, and 150 µM). NADPH, GSH, and GR were mixed in assay buffer before Grx was added and a baseline was recorded for 30 s. All GSSCys assays were started by the addition of GSSCys. The absorbance of a reference cuvette containing all components but no Grx was measured in parallel and subtracted from the obtained Grx activity. For the [compound left out] assays, GSH was varied between 100 µM and 2.0 mM at fixed concentrations of [compound left out] (0.18, 0.37, 0.55, and 0.74 mM). NADPH, GSH, and [compound left out] were preincubated in assay buffer for 2 min before GR was added and a baseline was recorded for 30 s. All [compound left out] assays were started by the addition of enzyme. Kinetic data were analyzed in Excel and SigmaPlot 13 by nonlinear and linear regression according to Michaelis–Menten, Lineweaver–Burk, Eadie–Hofstee, and Hanes theory[11],[19],[25]. 13 Supplementary Figure 7 Supplementary Figure 7 | GSSCys assay steady-state kinetics of ScGrx7 wild-type enzyme and D144X mutants. (a) Michaelis-Menten plots of the GSH-dependent reaction velocity at different initial concentrations of GSSCys. […]

[2] = substrate: N[C@@H](CCC(=O)N[C@@H](CS)C(=O)NCC(=O)O)C(=O)O; parameters: GSSCys oxidoreductase assay, steady-state kinetics, coupled NADPH consumption at 340 nm, pH 8.0, 25 °C
Method: as §1

[3] = substrate: N[C@@H](CCC(=O)N[C@@H](CSSC[C@H](N)C(=O)O)C(=O)NCC(=O)O)C(=O)O; parameters: GSSCys oxidoreductase assay, steady-state kinetics, coupled NADPH consumption at 340 nm, pH 8.0, 25 °C; remark: listed apart in the source
Method: as §1

[4] = substrate: N[C@@H](CCC(=O)N[C@@H](CS)C(=O)NCC(=O)O)C(=O)O; parameters: Disulfide oxidoreductase assay, steady-state kinetics, coupled NADPH consumption at 340 nm, pH 8.0, 25 °C
Method: Steady-state kinetics of wild-type and mutant ScGrx7 and HsGrx5^C122S in the GSSCys and [compound left out] assays were determined spectrophotometrically by monitoring the consumption of NADPH at 340 nm and 25 °C using a thermostated Jasco V-650 UV/vis spectrophotometer[11],[19],[25]. Fresh stock solutions of NADPH, GSH, GR, and GSSCys or [compound left out] were prepared in assay buffer containing 0.1 M Tris/HCl, 1 mM EDTA, pH 8.0 before each experiment. Both assays were performed with 0.1 mM NADPH and 1 U/ml ScGR. The following final protein concentrations were used for Y110F/H/A (5–150 nM), D144A/K (10 nM), E147A/K (10 nM), R153A/E (25–50 nM), ScGrx7^WP (20 nM), ScGrx7^loop (up to 1.4 µM), ScGrx7^WP+loop (up 2.6 µM), HsGrx5^C122S (up to 15 µM), HsGrx5^RR (up to 12 µM), HsGrx5^loop (up to 1.6 µM), and HsGrx5^RR+loop (up to 4.0 µM). For the GSSCys assays, GSH was varied between 50 µM and 1.5 mM at fixed GSSCys concentrations (25, 50, 100, and 150 µM). NADPH, GSH, and GR were mixed in assay buffer before Grx was added and a baseline was recorded for 30 s. All GSSCys assays were started by the addition of GSSCys. The absorbance of a reference cuvette containing all components but no Grx was measured in parallel and subtracted from the obtained Grx activity. For the [compound left out] assays, GSH was varied between 100 µM and 2.0 mM at fixed concentrations of [compound left out] (0.18, 0.37, 0.55, and 0.74 mM). NADPH, GSH, and [compound left out] were preincubated in assay buffer for 2 min before GR was added and a baseline was recorded for 30 s. All [compound left out] assays were started by the addition of enzyme. Kinetic data were analyzed in Excel and SigmaPlot 13 by nonlinear and linear regression according to Michaelis–Menten, Lineweaver–Burk, Eadie–Hofstee, and Hanes theory[11],[19],[25].

[5] = substrate: N[C@@H](CCC(=O)N[C@@H](CSSC[C@H](N)C(=O)O)C(=O)NCC(=O)O)C(=O)O; parameters: GSSCys oxidoreductase assay, steady-state kinetics, coupled NADPH consumption at 340 nm, pH 8.0, 25 °C; remark: listed apart in the source
Method: as §1

B1: ScGrx7 (Saccharomyces cerevisiae S288C) (protein)
chain: SVNESITTHHPDSLVTFDNSGNAPGTHQSVHDTVNTQDKEAEEVDKNSGDAEFDAAAEYNKIMEQSPMIVFSKTGCPYSKKLKALLTNSYTFSPSYYVVELDRHEHTKELQDQIEKVTGRRTVPNVIIGGTSRGGYTEIAELHKNDELLDSFKKWSDGAFTVKANSQSESA
notes: E. coli XL1-Blue, pQE30; N-terminal MRGS(H)6 tag
- Km [1]: 427 µM
- Km [2]: 1479 µM
- kcat [2]: 334 s⁻¹
- Km [3]: 266 ± 129 µM
- kcat [3]: 163 ± 54.8 s⁻¹
- kcat/Km [3]: 612000 M⁻¹ s⁻¹
- Km [4]: 1100 ± 100 µM
- kcat [4]: 72.9 ± 3.4 s⁻¹
- kcat/Km [4]: 66500 M⁻¹ s⁻¹
- Km [5]: 320 ± 91 µM
- kcat [5]: 239 ± 54 s⁻¹
- kcat/Km [5]: 757000 M⁻¹ s⁻¹
